# Reference: patent US20240117030A1 (Pfizer, published 2024)
# B1: p40-0003 (antibody, human IgG1, kappa, V domains shown)
# VH: EVQLVQSGAEVKKPGESLKISCKGSGYSFTTYWLGWVRQMPGKGLDWIGIMSPVDSDIRYSPSFQGQVTMSVDKSITTAYLQWNSLKASDTAMYYCARRRPGQGYFDFWGQGTLVTVSS
# VL: DIQMTQSPSSLSASVGDRVTITCRASQGISSWLAWYQQKPEKAPKSLIYAASSLQSGVPSRFSGSGSGTDFTLTISSLQPEDFATYYCQQYNIYPYTFGQGTKLEIKR
# Biological target: T1, human IL-12 (p35 + p40) (human, UniProt P29459 23-219; P29460 23-328)
# T1 sequence (looked up) 1: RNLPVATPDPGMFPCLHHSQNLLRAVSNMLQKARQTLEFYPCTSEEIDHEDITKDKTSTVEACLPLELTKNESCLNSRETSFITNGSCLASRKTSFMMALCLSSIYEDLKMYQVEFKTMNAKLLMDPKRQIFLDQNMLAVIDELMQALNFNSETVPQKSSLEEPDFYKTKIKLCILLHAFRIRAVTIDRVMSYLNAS
# T1 sequence (looked up) 2: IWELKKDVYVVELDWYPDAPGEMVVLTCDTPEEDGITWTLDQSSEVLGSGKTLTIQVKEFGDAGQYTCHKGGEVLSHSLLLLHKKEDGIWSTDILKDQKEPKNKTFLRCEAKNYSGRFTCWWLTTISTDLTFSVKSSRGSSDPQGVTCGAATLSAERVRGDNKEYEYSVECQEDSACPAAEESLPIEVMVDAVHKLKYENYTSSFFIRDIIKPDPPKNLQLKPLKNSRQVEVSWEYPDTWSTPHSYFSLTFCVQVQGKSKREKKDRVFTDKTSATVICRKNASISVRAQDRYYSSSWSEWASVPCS
# Test: cell-based or functional assay
binder,measurement,value
B1,anti-IL12 bioassay IC50,0.286 nM
